Assay [1] has as its target human CD33 N20K (human, UniProt P20138 18-364). Briefly: flow cytometry, transfected cells.
Assay [2] has as its target human CD33 P46Y (human, UniProt P20138 18-364). Briefly: flow cytometry, transfected cells. In general terms: A flow cytometer gives signals particle by particle.
In assay [3] the target is human CD33 P46F (human, UniProt P20138 18-364). Briefly: flow cytometry, transfected cells.
Assay [4] concerns the target human CD33 N20W (human, UniProt P20138 18-364). Briefly: flow cytometry, transfected cells.
The target of assay [5] is human CD33 N20E (human, UniProt P20138 18-364). The experiment in a line: flow cytometry, transfected cells.
Assay [6] addresses human CD33 P46D (human, UniProt P20138 18-364). The experiment in a line: flow cytometry, transfected cells.
Assay [7] concerns the target human CD33 P46H (human, UniProt P20138 18-364). Briefly: flow cytometry, transfected cells.
Assay [8] concerns the target human CD33 P19K (human, UniProt P20138 18-364). The experiment in a line: flow cytometry, transfected cells.
The target of assay [9] is human CD33 P46R (human, UniProt P20138 18-364). The experiment in a line: flow cytometry, transfected cells.
Assay [10] concerns the target human CD33 N20V (human, UniProt P20138 18-364). Briefly: flow cytometry, transfected cells.
For assay [11], the target named is human CD33 N20G (human, UniProt P20138 18-364). The experiment in a line: flow cytometry, transfected cells.
For assay [12], the target named is human CD33 F21V (human, UniProt P20138 18-364). The experiment in a line: flow cytometry, transfected cells.
Assay [13] addresses human CD33 W22S (human, UniProt P20138 18-364). The experiment in a line: flow cytometry, transfected cells.
Assay [14] deals with human CD33 F21I (human, UniProt P20138 18-364). Briefly: flow cytometry, transfected cells.
Assay [15] addresses human CD33 N20Q (human, UniProt P20138 18-364). The experiment in a line: flow cytometry, transfected cells.
Assay [16] deals with human CD33 N20P (human, UniProt P20138 18-364). The experiment in a line: flow cytometry, transfected cells.
In assay [17] the target is human CD33 W22G (human, UniProt P20138 18-364). The experiment in a line: flow cytometry, transfected cells.
For assay [18], the target named is human CD33 P19D (human, UniProt P20138 18-364). Briefly: flow cytometry, transfected cells.
Assay [19] addresses human CD33 N20T (human, UniProt P20138 18-364). The experiment in a line: flow cytometry, transfected cells.
Assay [20] concerns the target human CD33 N20Y (human, UniProt P20138 18-364). Briefly: flow cytometry, transfected cells.
The target of assay [21] is human CD33 F21L (human, UniProt P20138 18-364). The experiment in a line: flow cytometry, transfected cells.
Assay [22] has as its target human CD33 I47P (human, UniProt P20138 18-364). The experiment in a line: flow cytometry, transfected cells.
Assay [23] concerns the target human CD33 W22L (human, UniProt P20138 18-364). Briefly: flow cytometry, transfected cells.
Assay [24] addresses human CD33 R122I (human, UniProt P20138 18-364). The experiment in a line: flow cytometry, transfected cells, IgG.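 Note: CD33 point mutants transiently expressed in HEK293-T cells, antibody binding read by fluorescence, background subtracted and normalized to wild-type CD33 as 100%, duplicates.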
For assay [25], the target named is human CD33 P132H (human, UniProt P20138 18-364). Briefly: flow cytometry, transfected cells, IgG.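 Note: CD33 point mutants transiently expressed in HEK293-T cells, antibody binding read by fluorescence, background subtracted and normalized to wild-type CD33 as 100%, duplicates.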
Chain of human CD33 P132H (P20138 18-364 P132H limits assumed): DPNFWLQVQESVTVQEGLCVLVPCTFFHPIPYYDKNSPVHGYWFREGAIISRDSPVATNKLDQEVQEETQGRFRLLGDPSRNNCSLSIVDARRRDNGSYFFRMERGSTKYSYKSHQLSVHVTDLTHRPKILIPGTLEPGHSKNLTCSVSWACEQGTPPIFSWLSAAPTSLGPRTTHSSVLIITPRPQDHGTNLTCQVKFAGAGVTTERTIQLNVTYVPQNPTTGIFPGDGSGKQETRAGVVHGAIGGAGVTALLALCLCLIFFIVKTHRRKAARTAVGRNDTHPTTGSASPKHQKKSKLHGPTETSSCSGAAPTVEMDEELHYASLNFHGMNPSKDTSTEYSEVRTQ

Chain of human CD33 P46H (P20138 18-364 P46H limits assumed): as the sequence (P20138 18-364 P132H limits assumed) above, with P29H, H115P counted along it
Chain of human CD33 N20K (P20138 18-364 N20K limits assumed): as the sequence (P20138 18-364 P132H limits assumed) above, with N3K, H115P counted along it
Chain of human CD33 P46Y (P20138 18-364 P46Y limits assumed): as the sequence (P20138 18-364 P132H limits assumed) above, with P29Y, H115P counted along it
Chain of human CD33 N20P (P20138 18-364 N20P limits assumed): as the sequence (P20138 18-364 P132H limits assumed) above, with N3P, H115P counted along it
Chain of human CD33 N20W (P20138 18-364 N20W limits assumed): as the sequence (P20138 18-364 P132H limits assumed) above, with N3W, H115P counted along it
Chain of human CD33 N20E (P20138 18-364 N20E limits assumed): as the sequence (P20138 18-364 P132H limits assumed) above, with N3E, H115P counted along it
Chain of human CD33 W22G (P20138 18-364 W22G limits assumed): as the sequence (P20138 18-364 P132H limits assumed) above, with W5G, H115P counted along it
Chain of human CD33 P46D (P20138 18-364 P46D limits assumed): as the sequence (P20138 18-364 P132H limits assumed) above, with P29D, H115P counted along it
Chain of human CD33 N20Q (P20138 18-364 N20Q limits assumed): as the sequence (P20138 18-364 P132H limits assumed) above, with N3Q, H115P counted along it
Chain of human CD33 P46R (P20138 18-364 P46R limits assumed): as the sequence (P20138 18-364 P132H limits assumed) above, with P29R, H115P counted along it
Chain of human CD33 P46F (P20138 18-364 P46F limits assumed): as the sequence (P20138 18-364 P132H limits assumed) above, with P29F, H115P counted along it
Chain of human CD33 N20G (P20138 18-364 N20G limits assumed): as the sequence (P20138 18-364 P132H limits assumed) above, with N3G, H115P counted along it
Chain of human CD33 F21I (P20138 18-364 F21I limits assumed): as the sequence (P20138 18-364 P132H limits assumed) above, with F4I, H115P counted along it
Chain of human CD33 W22S (P20138 18-364 W22S limits assumed): as the sequence (P20138 18-364 P132H limits assumed) above, with W5S, H115P counted along it
Chain of human CD33 F21V (P20138 18-364 F21V limits assumed): as the sequence (P20138 18-364 P132H limits assumed) above, with F4V, H115P counted along it
Chain of human CD33 W22L (P20138 18-364 W22L limits assumed): as the sequence (P20138 18-364 P132H limits assumed) above, with W5L, H115P counted along it
Chain of human CD33 P19D (P20138 18-364 P19D limits assumed): as the sequence (P20138 18-364 P132H limits assumed) above, with P2D, H115P counted along it
Chain of human CD33 F21L (P20138 18-364 F21L limits assumed): as the sequence (P20138 18-364 P132H limits assumed) above, with F4L, H115P counted along it
Chain of human CD33 N20Y (P20138 18-364 N20Y limits assumed): as the sequence (P20138 18-364 P132H limits assumed) above, with N3Y, H115P counted along it
Chain of human CD33 N20V (P20138 18-364 N20V limits assumed): as the sequence (P20138 18-364 P132H limits assumed) above, with N3V, H115P counted along it
Chain of human CD33 P19K (P20138 18-364 P19K limits assumed): as the sequence (P20138 18-364 P132H limits assumed) above, with P2K, H115P counted along it
Chain of human CD33 N20T (P20138 18-364 N20T limits assumed): as the sequence (P20138 18-364 P132H limits assumed) above, with N3T, H115P counted along it
Chain of human CD33 I47P (P20138 18-364 I47P limits assumed): as the sequence (P20138 18-364 P132H limits assumed) above, with I30P, H115P counted along it
Chain of human CD33 R122I (P20138 18-364 R122I limits assumed): as the sequence (P20138 18-364 P132H limits assumed) above, with R105I, H115P counted along it

B1: Refmab #3 (antibody, human IgG1, V domains shown)
VH: QVQLVQSGAEVKKPGSSVKVSCKASGYTFTDYNMHWVRQAPGQGLEWIGYIYPYNGGTGYNQKFKSKATITADESTNTAYMELSSLRSEDTAVYYCARGRPAMDYWGQGTLVTVSS
VL: DIQMTQSPSSLSASVGDRVTITCRASESVDNYGISFMNWFQQKPGKAPKLLIYAASNQGSGVPSRFSGSGSGTDFTLTISSLQPDDFATYYCQQSKEVPWTFGQGTKVEIK
With B1, the binding result in assay [1], in assay [2], in assay [3], in assay [4], in assay [5] and in assay [6] was “no binding (tested: below 20%)” in each case. The binding result in assay [7], in [8], in assay [9], in assay [10], in [11] and in assay [12] was “no binding (tested: below 20%)” in each case. Further, the binding result in assay [13], in assay [14], in assay [15], in assay [16], in assay [17] and in assay [18] was “no binding (tested: below 20%)” in each case. Besides, the binding result in [19], in assay [20], in [21], in assay [22] and in [23] was “no binding (tested: below 20%)” each time.

B2: Refmab #6 (antibody, human IgG1, V domains shown)
VH: QVQLQQPGAEVVKPGASVKMSCKASGYTFTSYYIHWIKQTPGQGLEWVGVIYPGNDDISYNQKFQGKATLTADKSSTTAYMQLSSLTSEDSAVYYCAREVRLRYFDVWGQGTTVTVSS
VL: EIVLTQSPGSLAVSPGERVTMSCKSSQSVFFSSSQKNYLAWYQQIPGQSPRLLIYWASTRESGVPDRFTGSGSGTDFTLTISSVQPEDLAIYYCHQYLSSRTFGQGTKLEIK
On to B2, for which the binding result in assay [13], in assay [17] and in assay [23] was “no binding (tested: below 20%)” each time. Moreover, the “Mean % WT Binding” value is 107% in [24] and 86.6% in [25].

B3: Refmab #1 (antibody, human IgG1, V domains shown)
VH: EVQLVQSGAEVKKPGSSVKVSCKASGYTITDSNIHWVRQAPGQSLEWIGYIYPYNGGTDYNQKFKNRATLTVDNPTNTAYMELSSLRSEDTAFYYCVNGNPWLAYWGQGTLVTVSS
VL: DIQLTQSPSTLSASVGDRVTITCRASESLDNYGIRFLTWFQQKPGKAPKLLMYAASNQGSGVPSRFSGSGSGTEFTLTISSLQPDDFATYYCQQTKEVPWSFGQGTKVEVK
notes: also called hP67.6; Absolute Antibody Cat. No. Ab00283-10.0
Turning to B3, the binding result in assay [1], in assay [2], in assay [3], in [4], in assay [5] and in [6] was “no binding (tested: below 20%)” in each case. Besides, the binding result in assay [7], in assay [8], in assay [9], in assay [10], in assay [11] and in assay [12] was “no binding (tested: below 20%)” in each case. In addition, the binding result in [14], in [15], in assay [16], in assay [18], in [19] and in assay [20] was “no binding (tested: below 20%)” each time. In [21], the binding result was “no binding (tested: below 20%)”.
